Test results published in US11491212.

B1: FIXa-Y155F/N260S/R318Y/R338E/R403E/E410N (protein)
chain 1: not shown
chain 2: not shown
B2: FIXa-Y155F/K247N/N249S/N260S (protein)
chain 1: not shown
chain 2: not shown
B3: FIXa-D104N/K106S/K247N/N249S/N260S (protein)
chain 1: not shown
chain 2: not shown
B4: FIXa-Y155F/R318Y/R338E/N346D/R403E/E410N (protein)
chain 1: not shown
chain 2: not shown

The proteins below were run against Factor X (FX), P00742.
Chain of Factor X (FX), P00742 (P00742 whole entry, looked up): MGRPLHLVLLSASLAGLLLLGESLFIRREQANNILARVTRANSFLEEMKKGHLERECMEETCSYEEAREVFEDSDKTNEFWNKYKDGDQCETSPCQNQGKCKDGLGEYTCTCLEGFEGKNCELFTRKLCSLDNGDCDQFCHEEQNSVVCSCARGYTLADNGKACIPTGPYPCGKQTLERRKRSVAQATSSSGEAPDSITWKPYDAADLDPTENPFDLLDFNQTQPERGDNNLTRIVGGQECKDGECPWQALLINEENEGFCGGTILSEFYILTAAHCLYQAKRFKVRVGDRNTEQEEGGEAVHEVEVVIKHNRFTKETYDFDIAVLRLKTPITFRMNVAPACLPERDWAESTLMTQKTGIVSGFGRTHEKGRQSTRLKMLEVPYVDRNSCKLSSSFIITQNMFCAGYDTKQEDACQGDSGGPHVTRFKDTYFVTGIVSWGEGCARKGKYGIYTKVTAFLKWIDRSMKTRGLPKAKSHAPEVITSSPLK

Protein	% of WT kcat/KM (against Catalyst Biosciences WT FIXa), FX activation in the Xase complex	KM	KM (nM) for activation of FX by FIXa in the Xase complex (FVIIIa, PC/PS vesicles, Ca2+), fluorogenic Spectrafluor FXa assay	kcat/KM for FX activation by FIXa in the Xase complex (FVIIIa, PC/PS vesicles, Ca2+), indirect fluorogenic Spectrafluor FXa assay
B1	156%	0.0839 µM	83.9 nM	7e+07 M⁻¹ s⁻¹
B2	43%	0.0965 µM	96.5 nM	1.9e+07 M⁻¹ s⁻¹
B3	22%	0.0612 µM	61.2 nM	9.8e+06 M⁻¹ s⁻¹
B4	139%	0.1 µM	100 nM	6.2e+07 M⁻¹ s⁻¹
